Data from patent US20260022171A1.

Tests used:
[1] = biological target: human CD200R1 on cells (human) (UniProt Q8TD46); assay: cell-based or functional assay
[2] = biological target: cynomolgus monkey CD200R1 on cells (cynomolgus monkey); assay: flow cytometry, biotinylated antibody on cynomolgus CD8+ T cells (PBMC), streptavidin-PE; concentration not shown
[3] = biological target: human CD200R1 on cells (human) (UniProt Q8TD46); assay: flow cytometry, blocking: U937 cells stably expressing hu-CD200R1 incubated with the antibody, then with 55 nM huCD200-Fc-Flag, detected with anti-Flag PE (MFI)
[4] = biological target: cynomolgus monkey CD200R1 on cells (cynomolgus monkey); assay: flow cytometry, biotinylated antibody on cynomolgus CD4+ T cells (PBMC), streptavidin-PE; concentration not shown

Chain of hu-CD200-Fc (Fc fusion) (chain): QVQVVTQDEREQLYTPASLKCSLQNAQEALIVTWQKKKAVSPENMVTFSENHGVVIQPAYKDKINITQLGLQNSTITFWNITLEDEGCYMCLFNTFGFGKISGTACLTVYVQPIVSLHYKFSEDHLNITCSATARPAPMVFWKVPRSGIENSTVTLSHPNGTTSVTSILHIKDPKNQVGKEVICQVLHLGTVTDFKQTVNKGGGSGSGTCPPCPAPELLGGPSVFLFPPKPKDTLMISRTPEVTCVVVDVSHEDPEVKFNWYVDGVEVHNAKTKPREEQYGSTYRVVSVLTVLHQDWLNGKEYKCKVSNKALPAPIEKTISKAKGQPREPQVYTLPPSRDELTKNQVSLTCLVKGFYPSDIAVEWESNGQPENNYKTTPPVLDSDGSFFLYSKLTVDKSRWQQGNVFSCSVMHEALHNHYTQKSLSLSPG

| Substance | pDok2 induction, western blot, U937 cells expressing CD200R1 [1] [nM] | Mean:Comp-FL2-A [2] | IC50 [3] [nM] | Mean:Comp-FL2-A [4] |
| --- | --- | --- | --- | --- |
| hu-CD200-Fc (Fc fusion) | 200 | – | – | – |
| OX108 (commercial anti-CD200R1 antibody) | 33 | 425 | 2.8 | 566 |
| IgG Control (antibody) | – | 411 | – | 403 |
